In paper PMC9010765 one finds Kd, koff and kon data, which are given here for one substance.

The target of assay [1] is human myeloperoxidase (human) (UniProt P05164). Put plainly: SPR; BIAcore 3000; MPO immobilised on a CM5 chip through primary amino groups; lipid-poor apoA-I 0.5 nM to 3 uM flowed over at 20 ul/min in 10 mM PBS pH 7.4; 1:1 binding with drifting baseline model; apparent KD. For orientation: In SPR one partner is held on a chip, and binding of the other changes the refractive index at the surface.

Assay [2] concerns the target human myeloperoxidase (human). Put plainly: SPR; BIAcore 3000; MPO immobilised on a CM5 chip through primary amino groups; apoA-I 0.5 nM to ~3000 nM flowed over at 20 uL/min in 10 mM PBS, pH 7.4; fit to 1:1 binding with a drifting baseline; apparent KD.

As a reminder, the koff is a measure of how fast the partners let go of each other. As a reminder, the kon is the second-order rate constant of association.

human myeloperoxidase (human), sequence (P05164 165-745): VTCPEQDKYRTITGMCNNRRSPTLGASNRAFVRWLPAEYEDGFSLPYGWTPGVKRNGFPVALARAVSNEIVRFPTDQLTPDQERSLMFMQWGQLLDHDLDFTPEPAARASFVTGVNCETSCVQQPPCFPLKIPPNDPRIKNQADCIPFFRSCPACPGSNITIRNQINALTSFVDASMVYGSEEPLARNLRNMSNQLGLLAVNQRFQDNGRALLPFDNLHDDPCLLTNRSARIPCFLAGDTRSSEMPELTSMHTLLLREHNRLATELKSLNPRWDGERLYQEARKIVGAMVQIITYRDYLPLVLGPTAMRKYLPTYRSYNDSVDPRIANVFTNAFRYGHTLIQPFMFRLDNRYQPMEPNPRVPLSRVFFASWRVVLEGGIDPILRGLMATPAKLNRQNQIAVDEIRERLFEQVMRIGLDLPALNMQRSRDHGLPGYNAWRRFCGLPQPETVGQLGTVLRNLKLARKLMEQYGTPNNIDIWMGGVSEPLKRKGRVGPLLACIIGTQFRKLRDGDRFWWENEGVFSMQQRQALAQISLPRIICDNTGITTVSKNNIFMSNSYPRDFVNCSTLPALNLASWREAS

Regarding “recombinant human apolipoprotein A-I, lipid-poor (from UniProt P02647 19-267) (natural protein)”, in assay [1], the Kd came to 75 nM. For the same substance, in assay [2], the Kd is 75.1 nM, the dissociation rate constant (koff) came to 0.00377 s⁻¹ and the on-rate (kon) was found to be 50200 M⁻¹ s⁻¹.
